How the values were obtained:
[1] = target: T1, SCO3932 (GntR-like, HutC subfamily) (Streptomyces coelicolor A3(2) M145) (UniProt Q9X9T6); assay: DMS footprinting; conditions: EMSA: 10 mM Tris-HCl pH 7.5, 50 mM KCl, 1 mM DTT, herring sperm DNA 100 ng, DTT/Tween20, 0.03 pmol probe in 16 uL, 20 min room temperature; footprint: same …
T1 sequence: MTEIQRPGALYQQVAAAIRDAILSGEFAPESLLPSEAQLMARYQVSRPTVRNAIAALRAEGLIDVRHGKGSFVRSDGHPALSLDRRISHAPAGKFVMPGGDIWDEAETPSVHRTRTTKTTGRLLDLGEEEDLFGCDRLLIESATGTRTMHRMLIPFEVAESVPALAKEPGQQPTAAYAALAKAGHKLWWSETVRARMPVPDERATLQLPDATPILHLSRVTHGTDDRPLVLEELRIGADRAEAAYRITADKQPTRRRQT

[2] = target: T1, SCO3932 (GntR-like, HutC subfamily) (Streptomyces coelicolor A3(2) M145); assay: DNase I footprinting; conditions: EMSA: 10 mM Tris-HCl pH 7.5, 50 mM KCl, 1 mM DTT, herring sperm DNA 100 ng, DTT/Tween20, 0.03 pmol probe in 16 uL, 20 min room temperature; footprint: same …
[3] = test system: SCO3932 (GntR-like, HutC subfamily) (Streptomyces coelicolor A3(2) M145); assay: EMSA; conditions: EMSA: 10 mM Tris-HCl pH 7.5, 50 mM KCl, 1 mM DTT, herring sperm DNA 100 ng, DTT/Tween20, 0.03 pmol probe in 16 uL, 20 min room temperature; footprint: same …
[4] = test system: SCO3932 (GntR-like, HutC subfamily) (Streptomyces coelicolor A3(2) M145); assay: DNase I footprinting; conditions: protein concentration giving protection, EMSA: 10 mM Tris-HCl pH 7.5, 50 mM KCl, 1 mM DTT, herring sperm DNA 100 ng, DTT/Tween20, 0.03 pmol probe in 16 uL, 20 min room temperature, footprint: same …

## AAGGATCCGAATGGACTGCATTTCTGTGGCCTCCCTGGCCAATCCAGGACGTCCAACCTATTCGGACGTCACTTGTCCTTACGAGTGACAAGCTTGGAGCACTGTACGGCGAGAGCGCAACTACTTATGCTGACGAGTGATGTCGCGCGTGCGACGTGCCTACGACACCAGACCGGAGATGCCGAGATGACGGAGATCCAGAATTCTT (double strand) [p3932/3933 footprint probe]
[1]
  binding: binds
[2]
  binding: 100 nM

## p3932/3933 EMSA probe
[3]
  binding: 1.9 nM

## p3932/3933 footprint probe
[4]; sites K1, K2
  binding: 100 nM

## pactII-orf4 EMSA probe
[3]
  binding: 9.4 nM

## pactII-orf4 footprint probe
[4]; sites A1, A2
  binding: 800 nM

## pcpkA/D EMSA probe
[3]
  binding: 9.4 nM

## pcpkD footprint probe
[4]; site D
  binding: 800 nM

— PMC8584621
